In the assay the target is LSm7 (UniProt Q9UK45). Briefly: two-hybrid.
Sequence of UniProt Q9UK45 (Q9UK45 whole entry): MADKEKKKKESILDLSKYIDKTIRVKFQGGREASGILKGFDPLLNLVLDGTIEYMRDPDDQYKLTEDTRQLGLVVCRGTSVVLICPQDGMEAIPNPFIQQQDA

In the case of “SART3/p110 with the CT10 domain deleted (from UniProt Q15020 1-950) (domain or fragment)”, the fold reduction of the two-hybrid interaction against full-length SART3/p110 came out at 2 fold.

Source of the values: paper PMC2173746.
